Measured values published in US7432093B2, “Soluble, functional apoptotic protease-activating factor 1 fragments” (The Trustees of Princeton University, priority 2004, dated 2008).
Changes are numbered by the printed parent chain. In names and notes the source's numbering stands.

B1: 1-611: recombinant Apaf-1 protein, residues 1-611 (protein, UniProt O14727 1-611, looked up, fragment)
chain: MDAKARNCLLQHREALEKDIKTSYIMDHMISDGFLTISEEEKVRNEPTQQQRAAMLIKMILKKDNDSYVSFYNALLHEGYKDLAALLHDGIPVVSSSSGKDSVSGITSYVRTVLCEGGVPQRPVVFVTRKKLVNAIQQKLSKLKGEPGWVTIHGMAGCGKSVLAAEAVRDHSLLEGCFPGGVHWVSVGKQDKSGLLMKLQNLCTRLDQDESFSQRLPLNIEEAKDRLRILMLRKHPRSLLILDDVWDSWVLKAFDSQCQILLTTRDKSVTDSVMGPKYVVPVESSLGKEKGLEILSLFVNMKKADLPEQAHSIIKECKGSPLVVSLIGALLRDFPNRWEYYLKQLQNKQFKRIRKSSSYDYEALDEAMSISVEMLREDIKDYYTDLSILQKDVKVPTKVLCILWDMETEEVEDILQEFVNKSLLFCDRNGKSFRYYLHDLQVDFLTEKNCSQLQDLHKKIITQFQRYHQPHTLSPDQEDCMYWYNFLAYHMASAKMHKELCALMFSLDWIKAKTELVGPAHLIHEFVEYRHILDEKDCAVSENFQEFLSLNGHLLGRQPFPNIVQLGLCEPETSEVYQQAKLQAKQEVDNGMLYLEWINKKNITNLSRLVV
B2: 1-286: recombinant Apaf-1 fragment, residues 1-286 of SEQ ID NO: 1 (protein, listed as Homo sapiens)
chain: MDAKARNCLLQHREALEKDIKTSYIMDHMISDGFLTISEEEKVRNEPTQQQRAAMLIKMILKKDNDSYVSFYNALLHEGYKDLAALLHDGIPVVSSSSGKDSVSGITSYVRTVLCEGGVPQRPVVFVTRKKLVNAIQQKLSKLKGEPGWVTIHGMAGCGKSVLAAEAVRDHSLLEGCFPGGVHWVSVGKQDKSGLLMKLQNLCTRLDQDESFSQRLPLNIEEAKDRLRILMLRKHPRSLLILDDVWDSWVLKAFDSQCQILLTTRDKSVTDSVMGPKYVVPVESSL
B3: 1-589: recombinant Apaf-1 fragment, residues 1-589 of SEQ ID NO: 1 (protein, listed as Homo sapiens)
chain: MDAKARNCLLQHREALEKDIKTSYIMDHMISDGFLTISEEEKVRNEPTQQQRAAMLIKMILKKDNDSYVSFYNALLHEGYKDLAALLHDGIPVVSSSSGKDSVSGITSYVRTVLCEGGVPQRPVVFVTRKKLVNAIQQKLSKLKGEPGWVTIHGMAGCGKSVLAAEAVRDHSLLEGCFPGGVHWVSVGKQDKSGLLMKLQNLCTRLDQDESFSQRLPLNIEEAKDRLRILMLRKHPRSLLILDDVWDSWVLKAFDSQCQILLTTRDKSVTDSVMGPKYVVPVESSLGKEKGLEILSLFVNMKKADLPEQAHSIIKECKGSPLVVSLIGALLRDFPNRWEYYLKQLQNKQFKRIRKSSSYDYEALDEAMSISVEMLREDIKDYYTDLSILQKDVKVPTKVLCILWDMETEEVEDILQEFVNKSLLFCDRNGKSFRYYLHDLQVDFLTEKNCSQLQDLHKKIITQFQRYHQPHTLSPDQEDCMYWYNFLAYHMASAKMHKELCALMFSLDWIKAKTELVGPAHLIHEFVEYRHILDEKDCAVSENFQEFLSLNGHLLGRQPFPNIVQLGLCEPETSEVYQQAKLQAKQEVD
B4: 1-591 K160R: Apaf-1 fragment 1-591 of SEQ ID NO: 1 with K160R substitution (protein, listed as Homo sapiens)
chain: MDAKARNCLLQHREALEKDIKTSYIMDHMISDGFLTISEEEKVRNEPTQQQRAAMLIKMILKKDNDSYVSFYNALLHEGYKDLAALLHDGIPVVSSSSGKDSVSGITSYVRTVLCEGGVPQRPVVFVTRKKLVNAIQQKLSKLKGEPGWVTIHGMAGCGRSVLAAEAVRDHSLLEGCFPGGVHWVSVGKQDKSGLLMKLQNLCTRLDQDESFSQRLPLNIEEAKDRLRILMLRKHPRSLLILDDVWDSWVLKAFDSQCQILLTTRDKSVTDSVMGPKYVVPVESSLGKEKGLEILSLFVNMKKADLPEQAHSIIKECKGSPLVVSLIGALLRDFPNRWEYYLKQLQNKQFKRIRKSSSYDYEALDEAMSISVEMLREDIKDYYTDLSILQKDVKVPTKVLCILWDMETEEVEDILQEFVNKSLLFCDRNGKSFRYYLHDLQVDFLTEKNCSQLQDLHKKIITQFQRYHQPHTLSPDQEDCMYWYNFLAYHMASAKMHKELCALMFSLDWIKAKTELVGPAHLIHEFVEYRHILDEKDCAVSENFQEFLSLNGHLLGRQPFPNIVQLGLCEPETSEVYQQAKLQAKQEVDNG
B5: C115S: point mutation C115S made in SEQ ID NO: 1 (protein, listed as Homo sapiens)
chain: B4 chain with C115S, R160K
B6: 1-567: recombinant Apaf-1 fragment, residues 1-567 of SEQ ID NO: 1 (protein, listed as Homo sapiens)
chain: MDAKARNCLLQHREALEKDIKTSYIMDHMISDGFLTISEEEKVRNEPTQQQRAAMLIKMILKKDNDSYVSFYNALLHEGYKDLAALLHDGIPVVSSSSGKDSVSGITSYVRTVLCEGGVPQRPVVFVTRKKLVNAIQQKLSKLKGEPGWVTIHGMAGCGKSVLAAEAVRDHSLLEGCFPGGVHWVSVGKQDKSGLLMKLQNLCTRLDQDESFSQRLPLNIEEAKDRLRILMLRKHPRSLLILDDVWDSWVLKAFDSQCQILLTTRDKSVTDSVMGPKYVVPVESSLGKEKGLEILSLFVNMKKADLPEQAHSIIKECKGSPLVVSLIGALLRDFPNRWEYYLKQLQNKQFKRIRKSSSYDYEALDEAMSISVEMLREDIKDYYTDLSILQKDVKVPTKVLCILWDMETEEVEDILQEFVNKSLLFCDRNGKSFRYYLHDLQVDFLTEKNCSQLQDLHKKIITQFQRYHQPHTLSPDQEDCMYWYNFLAYHMASAKMHKELCALMFSLDWIKAKTELVGPAHLIHEFVEYRHILDEKDCAVSENFQEFLSLNGHLLGRQPFPNIVQLG
B7: 1-570: recombinant Apaf-1 fragment, residues 1-570 of SEQ ID NO: 1 (protein, listed as Homo sapiens)
chain: MDAKARNCLLQHREALEKDIKTSYIMDHMISDGFLTISEEEKVRNEPTQQQRAAMLIKMILKKDNDSYVSFYNALLHEGYKDLAALLHDGIPVVSSSSGKDSVSGITSYVRTVLCEGGVPQRPVVFVTRKKLVNAIQQKLSKLKGEPGWVTIHGMAGCGKSVLAAEAVRDHSLLEGCFPGGVHWVSVGKQDKSGLLMKLQNLCTRLDQDESFSQRLPLNIEEAKDRLRILMLRKHPRSLLILDDVWDSWVLKAFDSQCQILLTTRDKSVTDSVMGPKYVVPVESSLGKEKGLEILSLFVNMKKADLPEQAHSIIKECKGSPLVVSLIGALLRDFPNRWEYYLKQLQNKQFKRIRKSSSYDYEALDEAMSISVEMLREDIKDYYTDLSILQKDVKVPTKVLCILWDMETEEVEDILQEFVNKSLLFCDRNGKSFRYYLHDLQVDFLTEKNCSQLQDLHKKIITQFQRYHQPHTLSPDQEDCMYWYNFLAYHMASAKMHKELCALMFSLDWIKAKTELVGPAHLIHEFVEYRHILDEKDCAVSENFQEFLSLNGHLLGRQPFPNIVQLGLCE
B8: 1-349: recombinant Apaf-1 fragment, residues 1-349 of SEQ ID NO: 1 (protein, listed as Homo sapiens)
chain: MDAKARNCLLQHREALEKDIKTSYIMDHMISDGFLTISEEEKVRNEPTQQQRAAMLIKMILKKDNDSYVSFYNALLHEGYKDLAALLHDGIPVVSSSSGKDSVSGITSYVRTVLCEGGVPQRPVVFVTRKKLVNAIQQKLSKLKGEPGWVTIHGMAGCGKSVLAAEAVRDHSLLEGCFPGGVHWVSVGKQDKSGLLMKLQNLCTRLDQDESFSQRLPLNIEEAKDRLRILMLRKHPRSLLILDDVWDSWVLKAFDSQCQILLTTRDKSVTDSVMGPKYVVPVESSLGKEKGLEILSLFVNMKKADLPEQAHSIIKECKGSPLVVSLIGALLRDFPNRWEYYLKQLQNKQ
B9: 1-554: recombinant Apaf-1 fragment, residues 1-554 of SEQ ID NO: 1 (protein, listed as Homo sapiens)
chain: MDAKARNCLLQHREALEKDIKTSYIMDHMISDGFLTISEEEKVRNEPTQQQRAAMLIKMILKKDNDSYVSFYNALLHEGYKDLAALLHDGIPVVSSSSGKDSVSGITSYVRTVLCEGGVPQRPVVFVTRKKLVNAIQQKLSKLKGEPGWVTIHGMAGCGKSVLAAEAVRDHSLLEGCFPGGVHWVSVGKQDKSGLLMKLQNLCTRLDQDESFSQRLPLNIEEAKDRLRILMLRKHPRSLLILDDVWDSWVLKAFDSQCQILLTTRDKSVTDSVMGPKYVVPVESSLGKEKGLEILSLFVNMKKADLPEQAHSIIKECKGSPLVVSLIGALLRDFPNRWEYYLKQLQNKQFKRIRKSSSYDYEALDEAMSISVEMLREDIKDYYTDLSILQKDVKVPTKVLCILWDMETEEVEDILQEFVNKSLLFCDRNGKSFRYYLHDLQVDFLTEKNCSQLQDLHKKIITQFQRYHQPHTLSPDQEDCMYWYNFLAYHMASAKMHKELCALMFSLDWIKAKTELVGPAHLIHEFVEYRHILDEKDCAVSENFQEFLSLNGHL

format: physicochemical, E. coli
Description: Preferably, solubility of the fragment is assessed in a lysate of a bacterial culture used to produce the fragment at a concentration of at least 1 milligram per liter of bacterial culture.
All constructs for protein expression were generated using a standard PCR-based cloning strategy, and the identity of individual clones was verified by double-stranded plasmid sequencing. A soluble Apaf-1 fragment (residues 1-591, sequence (SEQ ID NO: 1) shown in FIG. 1) was over-expressed in Escherichia coli strain BL21(DE3) using plasmid vector pET29 having the nucleotide sequence described by Jiang et al. (2000, J. Biol. Chem. 275:31199-31203) operatively ligated therein. The coding sequence included an additional sequence encoding eight amino acid residues at its carboxy-terminal end (i.e., linked to residue 591 in the translated protein). These residues (Leu-Glu-His6) included a nickel-binding hexa-histidine sequence used for metal affinity chromatographic purification of the expressed protein. Soluble Apaf-1 was purified from the cell lysate using a Ni-NTA (nitrilotriacetic acid-ligated nickel; Qiagen) chromatography column. Dithiothreitol (DTT) and ethylenediamine tetraacetic acid (EDTA) were added to the eluted fraction in final concentrations of 5 millimolar each. After incubation for 30 minutes on ice, the protein solution was applied to an anion-exchange column (Source-15Q, Pharmacia) for further purification.

Row | Molecule | solubility and solution behavior (in words) | Solubility
1 | B1 | good solubility and solution behavior | –
2 | B2 | largely insoluble | –
3 | B3 | – | ++++
4 | B4 | without significant loss of activity or solubility | ++
5 | B5 | without significant loss of activity or solubility | –
6 | B6 | good solubility and solution behavior | +++
7 | B7 | good solubility and solution behavior | +++
8 | B8 | soluble to significant extent | ++
9 | B9 | good solubility and solution behavior | ++
